Measurements: patent US11156558B2, “Assessment of stability of biological product in prefilled syringes” (Becton Dickinson France, priority 2016, dated 2021)

Columns and labels:
[1] = Stability of mimetic peptide solution stored in direct contact with adhesive and insoluble tungsten (UPLC/DAD); format: physicochemical; conditions: insoluble tungsten, 3 days at 70° C., ammonium acetate pH4 buffer (20 mM)+0.02% tween 80, 45 μg/ml
Method: (§1) Peptide solutions were analyzed by LC/DAD/MS with Quattro premier XE Mass spectrometer from Waters.
The AAHAA (SEQ ID NO: 2) peptide was dissolved in ammonium acetate pH4 buffer (20 mM)+0.02% of tween 80 to a final concentration of 45 μg/ml. The AAHAA (SEQ ID NO: 2) peptide solution was stored in direct contact with the adhesive used to stake the needle to the syringe and with insoluble tungsten, a potential process residue, for 3 days at 70° C.
FIG. 3 is AAHAA (SEQ ID NO: 2) peptide ULPC/DAD chromatograms after 3 days at 70° C. in direct contact with two syringe components: (a) adhesive and (b) insoluble tungsten. (c) is chromatogram references.

[2] = Stability of mimetic peptide solution stored in direct contact with plunger stoppers (UPLC/DAD/MS); format: physicochemical
Method: as §1
The peptide AAWAA (SEQ ID NO: 1) was dissolved in ammonium acetate pH4 buffer (20 mM)+0.02% Tween 80 to a final concentration of 45 μg/ml. The obtained AAWAA (SEQ ID NO: 1) peptide solutions were stored in direct contact with a non-coated and an ETFE coated plunger stoppers for 30 days at 25° C./60% RH.
FIG. 1 is a UPLC/DAD chromatogram of AAWAA (SEQ ID NO: 1) pentapeptide in direct contact with a coated and a non-coated plunger stopper after 15 days (c, d) and 30 days (a,b) of storage at 25° C./60% RH. Chromatograms e and f are AAWAA (SEQ ID NO: 1) solutions references (without any direct contact with plunger stoppers),
FIG. 2 is the electrospray positiv (ESI+) mass spectra of (a) intact AAWAA (SEQ ID NO: 1) peptide (Retention time of 17.2 min) and (b) oxidized form of AAWAA (SEQ ID NO: 1)(Retention time of 17.1 min) detected after 30 days (25° C.) of contact between the non-coated plunger stopper and AAWAA (SEQ ID NO: 1) peptide solution.

| Substance | reaction with syringe component (degradation) [1] | oxidized form (ESI+ mass spectra) ([2]; after 30 days (25° C.) of contact with the non-coated plunger stopper) | degradation yield ([2]; non-coated vs ETFE coated plunger stopper, direct contact, 30 days at 25° C./60% RH, ammonium acetate pH4 buffer (20 mM)+0.02% Tween 80, 45 μg/ml) |
| --- | --- | --- | --- |
| Ala-Ala-His-Ala-Ala (AAHAA; synthesized pentapeptide) [mimetic model pentapeptide] | react with insoluble tungsten | – | – |
| Ala-Ala-Trp-Ala-Ala (AAWAA; synthesized pentapeptide) [mimetic model pentapeptide] | – | detected | more important when the peptide is in direct contact with the non-coated plunger stopper |
